Target: the molecule itself

B1: NgDapB (4-hydroxy-tetrahydrodipicolinate reductase from Neisseria gonorrhoeae) (enzyme, UniProt B4RR35 1-269, looked up)
chain: MIPLKIAIAGANGRMGRVLVEAVNNHPDTVLSGALEHSGSEALGLDAGYAVGLKTGIAISDDVDAVLAQSDVLIDFTRPEPTLKHLQKCVEKQVNIIIGTTGFDDAGKAAIRAAAEKTGIVFAANFSVGVNLTFHILDTVARVLNEGYDIEIIEGHHRHKVDAPSGTALRMGEVIAGALGRDLKQCAVYGREGHTGPRDPSTIGFATVRAGDIVGDHTALFATDGERVEITHKAGSRMTFAAGAVRAAVWVNGKTGLYDMQDVLGLNNR
In the case of B1, the “stoichiometry N” value is reported as 4.

Reference: paper PMC5793033 (ACS Omega, 2018)
